# Results reported in patent US20030232009A1 (Amgen, published 2003).
# Where two headings read alike, the source gives them in different places.
# T1: chimeric CD45RB (full length human CD45RB with the macaque RB exon) transiently expressed in CHO cells (human; macaque, UniProt P08575-9 26-33; P08575-9 81-1192)
# T1 construct: whole chimeric protein on CHO cells; also called Macaque CD45RB CHO
# T1 sequence: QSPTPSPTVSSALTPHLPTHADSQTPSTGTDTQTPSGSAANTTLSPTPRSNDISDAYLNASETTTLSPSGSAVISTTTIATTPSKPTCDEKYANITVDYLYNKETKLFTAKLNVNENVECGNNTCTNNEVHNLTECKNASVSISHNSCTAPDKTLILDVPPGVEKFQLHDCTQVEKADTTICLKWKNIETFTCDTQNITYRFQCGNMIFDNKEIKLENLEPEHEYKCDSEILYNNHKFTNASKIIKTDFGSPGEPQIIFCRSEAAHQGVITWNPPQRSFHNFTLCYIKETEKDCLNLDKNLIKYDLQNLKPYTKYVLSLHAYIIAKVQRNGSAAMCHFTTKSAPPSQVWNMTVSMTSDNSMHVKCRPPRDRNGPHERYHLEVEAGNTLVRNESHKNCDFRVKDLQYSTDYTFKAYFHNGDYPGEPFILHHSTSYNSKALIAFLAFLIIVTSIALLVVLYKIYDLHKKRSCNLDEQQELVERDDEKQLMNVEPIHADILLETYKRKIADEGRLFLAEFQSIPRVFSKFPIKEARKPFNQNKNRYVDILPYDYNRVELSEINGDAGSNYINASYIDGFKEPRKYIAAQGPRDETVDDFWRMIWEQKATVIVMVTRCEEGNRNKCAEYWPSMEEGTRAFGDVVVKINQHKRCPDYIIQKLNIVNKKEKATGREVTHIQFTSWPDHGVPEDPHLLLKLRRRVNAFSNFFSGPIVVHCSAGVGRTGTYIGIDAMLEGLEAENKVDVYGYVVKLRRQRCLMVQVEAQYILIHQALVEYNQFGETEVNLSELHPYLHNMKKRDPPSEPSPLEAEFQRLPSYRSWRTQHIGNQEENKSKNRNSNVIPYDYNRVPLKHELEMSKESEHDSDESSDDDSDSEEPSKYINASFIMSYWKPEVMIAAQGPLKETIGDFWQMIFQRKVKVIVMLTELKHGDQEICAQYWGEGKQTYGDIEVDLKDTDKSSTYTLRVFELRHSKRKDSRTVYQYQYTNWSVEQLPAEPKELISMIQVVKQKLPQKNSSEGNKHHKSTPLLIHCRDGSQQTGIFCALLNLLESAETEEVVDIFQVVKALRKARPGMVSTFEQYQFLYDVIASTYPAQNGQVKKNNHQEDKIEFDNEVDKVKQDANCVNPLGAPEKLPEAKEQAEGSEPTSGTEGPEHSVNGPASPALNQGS
# T2: Human 18 mer peptide (human)
# T2 construct: synthetic peptide from the RB exon
# T2 peptide: VSSVQTPHLPTHADSQTPC
# T3: Human 20.1 peptide (human)
# T3 construct: synthetic peptide from the RB exon
# T3 peptide: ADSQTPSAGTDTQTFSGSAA
# T4: Human 46 mer peptide (RB exon of human CD45) (human)
# T4 construct: synthetic peptide; also called CD45RB 46 mer
# T4 peptide: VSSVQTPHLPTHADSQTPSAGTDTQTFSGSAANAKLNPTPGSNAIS
# T5: Human 20.2 peptide (human)
# T5 construct: synthetic peptide from the RB exon
# T5 peptide: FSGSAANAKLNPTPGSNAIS
# T6: Human CD45RB (format not stated) (human, UniProt P08575-9 26-1192, limits assumed)
# T6 construct: also called RB exon of CD45
# T6 sequence (looked up): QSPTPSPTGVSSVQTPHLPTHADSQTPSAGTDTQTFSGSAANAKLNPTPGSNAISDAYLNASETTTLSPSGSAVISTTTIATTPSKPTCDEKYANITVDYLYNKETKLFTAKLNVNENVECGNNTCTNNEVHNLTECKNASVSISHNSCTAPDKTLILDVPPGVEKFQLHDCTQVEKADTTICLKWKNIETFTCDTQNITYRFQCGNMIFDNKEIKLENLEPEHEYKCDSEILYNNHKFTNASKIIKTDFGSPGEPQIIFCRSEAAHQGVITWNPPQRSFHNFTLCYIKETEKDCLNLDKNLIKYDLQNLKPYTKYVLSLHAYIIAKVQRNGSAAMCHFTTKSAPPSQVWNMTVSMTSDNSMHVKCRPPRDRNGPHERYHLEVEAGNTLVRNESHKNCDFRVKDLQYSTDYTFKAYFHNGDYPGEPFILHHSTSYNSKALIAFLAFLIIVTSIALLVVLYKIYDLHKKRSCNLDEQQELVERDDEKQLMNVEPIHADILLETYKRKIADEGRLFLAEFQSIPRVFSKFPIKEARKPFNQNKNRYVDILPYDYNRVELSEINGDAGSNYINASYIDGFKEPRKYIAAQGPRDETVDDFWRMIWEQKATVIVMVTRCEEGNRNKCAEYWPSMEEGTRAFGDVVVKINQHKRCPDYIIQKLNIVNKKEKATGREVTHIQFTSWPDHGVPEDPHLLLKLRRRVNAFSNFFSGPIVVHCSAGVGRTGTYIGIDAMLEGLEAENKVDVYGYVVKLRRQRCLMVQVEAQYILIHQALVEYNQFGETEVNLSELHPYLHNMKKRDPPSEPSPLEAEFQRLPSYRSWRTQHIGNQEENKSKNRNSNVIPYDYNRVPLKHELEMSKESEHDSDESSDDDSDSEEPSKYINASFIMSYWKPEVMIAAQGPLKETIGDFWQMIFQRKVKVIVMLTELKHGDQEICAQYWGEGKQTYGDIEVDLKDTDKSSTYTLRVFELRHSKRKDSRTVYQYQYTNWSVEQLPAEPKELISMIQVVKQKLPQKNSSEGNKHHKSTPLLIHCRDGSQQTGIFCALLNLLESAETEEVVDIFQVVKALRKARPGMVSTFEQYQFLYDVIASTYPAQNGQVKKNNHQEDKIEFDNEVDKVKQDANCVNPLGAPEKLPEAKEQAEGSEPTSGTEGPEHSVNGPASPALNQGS
# T7: Macaque 46 mer peptide (RB exon of macaque CD45RB) (macaque)
# T7 construct: synthetic peptide
# T7 peptide: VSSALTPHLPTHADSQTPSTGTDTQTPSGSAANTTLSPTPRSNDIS
# What was measured:
# [1] = biological target: T1, chimeric CD45RB (full length human …); experiment: transiently transfected CHO cells
# Human 18 mer peptide = biological target: T2, Human 18 mer peptide; experiment: recombinant antibody on peptide
# Human 20.1 peptide [2] = biological target: T3, Human 20.1 peptide; experiment: recombinant antibody on peptide
# [3] = biological target: T4, Human 46 mer peptide (RB exon of human …); experiment: recombinant antibody on peptide
# Human 20.2 peptide = biological target: T5, Human 20.2 peptide; experiment: recombinant antibody on peptide
# [4] = biological target: T6, Human CD45RB (format not stated); experiment: screening of harvest 2
# [5] = biological target: T7, Macaque 46 mer peptide (RB exon of …); experiment: ELISA, well supernatant on coated peptide
# Human 20.1 peptide [6] = biological target: T3, Human 20.1 peptide; experiment: ELISA, well supernatant on coated peptide
# [7] = biological target: T4, Human 46 mer peptide (RB exon of human …); experiment: ELISA, well supernatant on coated peptide
# [8] = biological target: T7, Macaque 46 mer peptide (RB exon of …); experiment: recombinant antibody on peptide
# [9] = biological target: T7, Macaque 46 mer peptide (RB exon of …); experiment: ELISA, well supernatant on coated peptide
# Human 20.1 peptide [10] = biological target: T3, Human 20.1 peptide; experiment: ELISA, well supernatant on coated peptide
# [11] = biological target: T4, Human 46 mer peptide (RB exon of human …); experiment: ELISA, well supernatant on coated peptide
# [12] = biological target: T6, Human CD45RB (format not stated); experiment: screening of harvest 9
binder,measurement,setting,value
"AB-CD45RB-XG2-009 (antibody, human IgG2, V domains shown, recombinant human IgG2 kappa; also called sc009; 16C9 (sc009)) VH: QVQLVESGGGVVQPGRSLRLSCAASGFTFSNYGMHWVRQAPGKGLEWVAVIWYDGSKRFYAGSVKGRFTISRDNSKNTLYLQMNSLRAEDTAVYYCARTTDYWGQGTMVTVSS VL: DIVMTQTPLSLSVTPGQPASISCKSSQSLLHSDGKTYLYWYLQKPGQPPQLLIYEVSNRFSGVPDRFSGSGSGTDFTLKISRVEAEDVGLYWCMQSIQLPITFGQGTRLEIK",binding result,[1],no binding
same,binding result,Human 18 mer peptide,no binding
same,binding result,Human 20.1 peptide [2],no binding
same,binding result,[3],binds
same,binding result,Human 20.2 peptide,no binding
same,binding result,[4],binds
"antibody in the supernatant of B cell culture well 170B8 (antibody, V domains shown, recombinant 475 came from this well) VH: AVQLLESGGGLIQPGGSLRLSCAASGFTFSSYAMSWVRQAPGKGLEWVSAISGSGGSTFYADSVRGRFTISRDNSKNTLYLQMNSLRVEDTAVYYCAKEVMGPIFFDYWGQGTLVTVSS VL: EIVLTQSPGTLSLSPGERATLSCRASQSIISSALAWYQQKPGQAPRLLIYGASSRATGIPDRFSGSGSGTDFTLTISRLEPEDFAVYHCQQYGSTPLTFGGGTKVEIK",ELISA reading,[5],0.8
same,ELISA reading,Human 20.1 peptide [6],3.9
same,ELISA reading,[7],2.5
"AB-CD45RB-XG2-539 (antibody, human IgG2, V domains shown, recombinant human IgG2 kappa; also called sc539) VH: QVQLQESGPGLVKPSETLSLTCTVSGGSISGSYWSWIRQPAGKGLEWIGRIHSTGKTAYNPSLKSRVIMSLDTSKNLFSLKLTSVTAADTAVYYCARDYDFLTGYFDYWGQGTLVTVSS VL: DVVMTQSPLSLPVTLGQPASISCRSSQSLVYGDGNTYLNWFQQRPGHSPRRLIYKVSNWDSGVPDRFSGSGSGTDFTLKISRVEAEDVGIYYCMQGTHWPPTFGQGTRVEIK",binding result,[1],no binding
same,binding result,[8],no binding
same,binding result,[3],no binding
same,binding result,Human 20.2 peptide,no binding
"antibody in the supernatant of B cell culture well 227E10 (antibody, V domains shown) VH: QVHLVESGGGLVKPGGSLRLSCAASGFTFINYYMTWIRQAPGKGLEWVSYISLSGSTIYYADSVKGRFTISRDNAKNSLFLQMNSLRAEDTAVYYCARRAATVTTFDYWGQGTLVTVSS VL: EIVMTQSPATLSVSPGERATLSCRASQSVRSNLAWSQQKPGQAPRLLIYGASTRATGIPARFSGSGSGTEFTLTISSLQSEDFAVYYCQQYNNWPLTFGGGTKVEIK",ELISA reading,[9],0.2
same,ELISA reading,Human 20.1 peptide [10],0.1
same,ELISA reading,[11],0.2
"AB-CD45RB-XG2-648 (antibody, human IgG2, V domains shown, recombinant human IgG2 kappa; also called sc648) VH: QVQLVESGGGLVKPGGSLRLSCAASGFTFNVYYMNWIRQAPGKGLEWVSYISTSSSAIYYADSVKGRFTISRDNAKNSLYLQMNSLRAEDTAVYYCARRTGSTTVFDYWGQGTLVTVSS VL: EIVLTQSPATLSVSPGERATLSCRASQSINNNLAWYQQKPGQAPRLLIYGASTRATGIPAKFSGSGSGTEFTLTISSLQSENFAVYYCQQYNKWPLTFGGGTKVEIK",binding result,[8],no binding
same,binding result,Human 18 mer peptide,no binding
same,binding result,Human 20.1 peptide [2],no binding
same,binding result,[3],no binding
same,binding result,Human 20.2 peptide,no binding
same,binding result,[12],binds
"antibody in the supernatant of B cell culture well 283B2 (antibody, V domains shown, recombinant 648 came from this well) VH: QVQLVESGGGLVKPGGSLRLSCAASGFTFNVYYMNWIRQAPGKGLEWVSYISTSSSAIYYADSVKGRFTISRDNAKNSLYLQMNSLRAEDTAVYYCARRTGSTTVFDYWGQGTLVTVSS VL: EIVLTQSPATLSVSPGERATLSCRASQSINNNLAWYQQKPGQAPRLLIYGASTRATGIPAKFSGSGSGTEFTLTISSLQSENFAVYYCQQYNKWPLTFGGGTKVEIK",ELISA reading,[9],0.2
same,ELISA reading,Human 20.1 peptide [10],0.1
same,ELISA reading,[11],0.2
"antibody in the supernatant of B cell culture well 250F2 (antibody, V domains shown, recombinant 662 came from this well) VH: QVQLVESGGDLVKPGGSLRLSCAASGFSFSGYYLSWIRQAPGKGLEWVSYISLSGSFIKYADSVKGRFTISRDNAKKTLHLQMNSLRAEDTAVYYCARRTGTTTVFDYWGQGTLVTVSS VL: EVVMTQSPATLSVSPGERATLSCRASQSVNSNLAWYQQRPGQAPRLLIYGASTRVTGIPARFSGSGSGTEFTLTISSLQSEDFAVYYCQQYNNWPLTFGGGTKVEIK",ELISA reading,[9],0.2
same,ELISA reading,Human 20.1 peptide [10],0.1
same,ELISA reading,[11],0.2
"antibody in the supernatant of B cell culture well 255D9 (antibody, V domains shown, recombinant 713 came from this well) VH: QVQLVESGGGVVQPGRSLRLSCAASGFTFSNYGMHWVRQAPGKGLEWVAVIWYDGSKKFYADSVKGRFTISRDNFEKTLYLQMNSLRAEDTAVYYCARGGGDFDYWGQGTLVTVSS VL: EIVMTQSPATLSVSPGERATLSCRASQSLSGSYLAWYQQKPGQAPRLLIYSASTRATGIPARFSGSGSGTEFTLTISSLQSEDFAVYYCQQYNNWPPLTFGGGTKVEIK",ELISA reading,[9],0.1
same,ELISA reading,Human 20.1 peptide [10],0.1
same,ELISA reading,[11],3.5
